Data from PMC12668182.
One block for each substance: values may come before it.

Experiments:
[1] = biological target: HaloTag-CSB, full length, JaneliaFluor-labelled (human) (UniProt Q03468); test: single-molecule fluorescence on tethered DNA (SMADNE, LUMICKS C-Trap); oligomerisation state of HaloTag-CSB (photon counts) in events colocalised with SNM1A on lambda dsDNA; DNA present
[2] = biological target: HaloTag-CSB, full length, JaneliaFluor-labelled (human) (UniProt Q03468); test: single-molecule fluorescence on tethered DNA (SMADNE, LUMICKS C-Trap); oligomerisation state of HaloTag-CSB (photon counts) at the site-specific ICL repair intermediate, alone or colocalised with SNM1A; DNA present
[3] = biological target: HaloTag-CSB, full length, JaneliaFluor-labelled (human) (UniProt Q03468); test: single-molecule fluorescence on tethered DNA (SMADNE, LUMICKS C-Trap); two-colour HaloTag-CSB nuclear extracts (JF552 and JF635) on lambda dsDNA; colocalisation and photon counts; 20 mM HEPES pH 7.5, 10% glycerol, 1 mM DTT, 1 mM MgCl2; 30 C; DNA present
[4] = tested on: HaloTag-CSB full-length (nuclear extract, SMADNE);HaloTag-SNM1A catalytic domain; test: single-molecule (optical tweezers C-Trap); details: EMSA: 20 mM HEPES-KOH pH 7.5, 50 mM KCl, 0.05% Triton X-100, 0.5 mM TCEP, 5% glycerol, 1 nM oligo, 4 C, C-Trap: 20 mM HEPES pH 7.5, 10% glycerol, 1 mM DTT
[5] = tested on: HaloTag-SNM1A catalytic domain; test: single-molecule (optical tweezers C-Trap); details: EMSA: 20 mM HEPES-KOH pH 7.5, 50 mM KCl, 0.05% Triton X-100, 0.5 mM TCEP, 5% glycerol, 1 nM oligo, 4 C, C-Trap: 20 mM HEPES pH 7.5, 10% glycerol, 1 mM DTT
[6] = biological target: full-length CSB (ERCC6), wild type, recombinant (human) (UniProt Q03468); test: SEC; purification of full-length CSB alone on Superdex S200; retention volume compared with calibration curves; 50 mM HEPES pH 8, 300 mM NaCl, 1 mM TCEP; monomer to dimer
[7] = tested on: HaloTag-CSB full-length (nuclear extract, SMADNE); test: single-molecule (SMADNE, optical tweezers C-Trap); details: EMSA: 20 mM HEPES-KOH pH 7.5, 50 mM KCl, 0.05% Triton X-100, 0.5 mM TCEP, 5% glycerol, 1 nM oligo, 4 C, C-Trap: 20 mM HEPES pH 7.5, 10% glycerol, 1 mM DTT
[8] = triazole click ICL (azide-C6-amino-dA x octadiynyl-dU), 5'P flap

percent of CSB:SNM1A colocalisation events on lambda DNA in which CSB was a dimer [1]: 73% | percent of CSB events at the ICL repair intermediate that were dimeric [2]: 78% | percent of SNM1A:CSB events on ICL repair intermediates with dimeric CSB [2]: 90% | percent of CSB binding events on lambda DNA that were dimeric [3]: 35% | percent of single colour tracks in which a dimeric CSB bound to DNA [3]: 20%
Substance: HaloTag-CSB, full length, JaneliaFluor-labelled (from UniProt Q03468 1-1493) (natural protein)

Substance: ICL flap repair intermediate (C-Trap)
Kd [4, 8]: 45 nM | Kd [5, 8]: 355 nM

stoichiometry N [6]: 2
Substance: full-length CSB (ERCC6), wild type, recombinant (from UniProt Q03468 1-1493) (natural protein)

Substance: lambda DNA (undamaged)
Kd [7]: 1.2 nM | Kd [4]: 17.5 nM | Kd [5]: 21.8 nM
